The values that follow come from PMC6026317 (2018).

Ends that are not written are not given here.

The first experiment deals with T1, Soluble human FGFR1c/KLB receptor complex (FGFR1c ectodomain-Fc with soluble KLB) (human, UniProt P11362 22-376; Q86Z14 1-996). Briefly: AlphaScreen competition with biotinylated FGF21. (Alpha assays give light when donor and acceptor beads are brought close together.)
T1 sequence (P11362 22-376, chain 1 of 2): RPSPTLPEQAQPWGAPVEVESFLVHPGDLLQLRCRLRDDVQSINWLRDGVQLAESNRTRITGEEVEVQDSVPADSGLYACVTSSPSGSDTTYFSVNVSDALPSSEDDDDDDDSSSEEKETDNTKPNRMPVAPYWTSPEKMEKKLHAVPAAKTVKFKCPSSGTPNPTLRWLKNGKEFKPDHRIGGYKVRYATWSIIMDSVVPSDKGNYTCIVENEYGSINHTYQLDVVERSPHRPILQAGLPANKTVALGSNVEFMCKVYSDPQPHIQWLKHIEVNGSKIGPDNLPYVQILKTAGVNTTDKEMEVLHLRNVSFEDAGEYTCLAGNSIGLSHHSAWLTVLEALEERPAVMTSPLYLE
T1 sequence (Q86Z14 53-996, chain 2 of 2): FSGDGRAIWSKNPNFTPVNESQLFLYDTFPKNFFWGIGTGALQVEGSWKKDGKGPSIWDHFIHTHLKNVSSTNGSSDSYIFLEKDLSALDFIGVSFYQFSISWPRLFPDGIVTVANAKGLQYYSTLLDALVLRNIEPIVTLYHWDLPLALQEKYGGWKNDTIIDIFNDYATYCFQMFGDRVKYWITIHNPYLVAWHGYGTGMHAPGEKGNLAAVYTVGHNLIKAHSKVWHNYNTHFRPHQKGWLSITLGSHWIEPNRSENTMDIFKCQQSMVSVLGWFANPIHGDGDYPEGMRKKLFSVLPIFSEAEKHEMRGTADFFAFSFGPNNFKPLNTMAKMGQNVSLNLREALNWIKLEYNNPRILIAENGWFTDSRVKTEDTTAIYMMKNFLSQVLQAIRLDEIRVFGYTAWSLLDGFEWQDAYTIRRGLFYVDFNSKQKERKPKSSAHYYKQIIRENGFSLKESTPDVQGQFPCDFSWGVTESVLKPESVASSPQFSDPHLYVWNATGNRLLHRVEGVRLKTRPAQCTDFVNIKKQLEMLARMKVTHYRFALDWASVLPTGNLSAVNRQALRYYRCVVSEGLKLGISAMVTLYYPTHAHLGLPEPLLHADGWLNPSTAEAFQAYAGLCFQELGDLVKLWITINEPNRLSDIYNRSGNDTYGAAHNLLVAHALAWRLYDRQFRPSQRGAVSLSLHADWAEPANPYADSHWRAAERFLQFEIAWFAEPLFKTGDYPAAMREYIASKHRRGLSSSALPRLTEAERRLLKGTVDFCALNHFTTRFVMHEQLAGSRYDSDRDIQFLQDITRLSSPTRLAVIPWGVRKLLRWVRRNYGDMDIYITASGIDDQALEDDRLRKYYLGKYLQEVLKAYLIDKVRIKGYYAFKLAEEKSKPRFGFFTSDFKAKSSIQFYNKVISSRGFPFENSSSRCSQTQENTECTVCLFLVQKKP
As usually defined, the IC50 is the midpoint of a concentration-inhibition curve. High values mean a need for much substance, low ones inhibition by little substance. Molecule PPDVGSSDPLSMVGPSQGASPSYAS-NH2 [21C25 R175A] had a half-maximal inhibitory concentration (IC50) of 0.05 µM.
Same read-out and setting: as for PPDVGSSDPLSMVGPSQGRSPSYAA-NH2 [21C25 S181A], the figure is 0.05 µM.
On to PPDVGSSDPLSMVGPSAGRSPSYAS-NH2 [21C25 Q173A], for which the IC50 worked out at 0.07 µM.
The same measure, in the same setting: as for PPDVGSSDPLSMVGASQGRSPSYAS-NH2 [21C25 P171A], the figure is 0.13 µM; as for APDVGSSDPLSMVGPSQGRSPSYAS-NH2 [21C25 P157A], 0.42 µM.
Still for that read-out and setting: next, PPDVGSSDPLSMVGPSQGRSASYAS-NH2 [21C25 P177A]: 2.5 µM; PPDVGSSDPLSMVGPAQGRSPSYAS-NH2 [21C25 S172A]: 0.12 µM.
Still for that read-out and setting: next, PPDVGSSDPLSMVGPSQARSPSYAS-NH2 [21C25 G174A]: 0.15 µM; PPDVGSSDPLAMVGPSQGRSPSYAS-NH2 [21C25 S167A]: 0.2 µM; PPDVGASDPLSMVGPSQGRSPSYAS-NH2 [21C25 S162A]: 2.13 µM.
PPDVGSSDPLSMVGPSQGRAPSYAS-NH2 [21C25 S176A] returned an IC50 of 3.14 µM.
Take PPDVGSSDPLSMVGPSQGRSPAYAS-NH2 [21C25 S178A]: the IC50 turned out to be 2.87 µM.
PPAVGSSDPLSMVGPSQGRSPSYAS-NH2 [21C25 D159A] registered an IC50 of 1.39 µM.
The same measure, in the same setting: next, PADVGSSDPLSMVGPSQGRSPSYAS-NH2 [21C25 P158A]: 0.89 µM; PPDVGSSDPLSMVGPSQGRSPSAAS-NH2 [21C25 Y179A]: 2.58 µM.
As for PPDAGSSDPLSMVGPSQGRSPSYAS-NH2 [21C25 V160A], the IC50 amounted to 3.98 µM.
Same read-out and setting: as for PPDVGSSDPLSMVAPSQGRSPSYAS-NH2 [21C25 G170A], the figure is 0.18 µM; as for PPDVGSADPLSMVGPSQGRSPSYAS-NH2 [21C25 S163A], 0.19 µM.
On the same count and under the same terms, next, PPDVASSDPLSMVGPSQGRSPSYAS-NH2 [21C25 G161A]: 0.16 µM.
On the same count and under the same terms, next, PPDVGSSDPLSMAGPSQGRSPSYAS-NH2 [21C25 V169A]: 3.11 µM.

A further experiment has as its target T1, Soluble human FGFR1c/KLB receptor …. The experiment in a line: AlphaScreen competition with biotinylated FGF21. The source holds these as a separate data set.
PPDVGSSDPLSMVGPSQGRSPSYAS-NH2 [21C25 (C-terminal 25-residue peptide of FGF21)] registered an IC50 of 0.15 µM.
